Laboratory results: US20210145976A1

Molecular target: human serum albumin (human) (UniProt P02768)
Experiment: screening ELISA

human serum albumin (human), sequence (P02768 25-609 limits assumed): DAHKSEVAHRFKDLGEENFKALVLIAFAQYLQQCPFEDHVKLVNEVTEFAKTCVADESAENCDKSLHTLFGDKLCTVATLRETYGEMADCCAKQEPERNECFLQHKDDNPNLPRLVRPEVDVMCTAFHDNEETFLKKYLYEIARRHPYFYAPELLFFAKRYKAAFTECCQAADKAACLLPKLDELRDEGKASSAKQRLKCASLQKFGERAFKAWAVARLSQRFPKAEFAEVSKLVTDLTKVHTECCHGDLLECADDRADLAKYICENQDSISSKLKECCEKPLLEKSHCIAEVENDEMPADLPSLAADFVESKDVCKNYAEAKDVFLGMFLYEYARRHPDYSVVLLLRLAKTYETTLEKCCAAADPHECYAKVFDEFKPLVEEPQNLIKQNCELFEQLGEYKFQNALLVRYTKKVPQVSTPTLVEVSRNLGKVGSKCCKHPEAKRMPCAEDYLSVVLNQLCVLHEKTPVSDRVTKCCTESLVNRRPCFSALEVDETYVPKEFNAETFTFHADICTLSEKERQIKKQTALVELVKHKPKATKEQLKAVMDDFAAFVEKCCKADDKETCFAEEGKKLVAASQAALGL

| Binder | HSA |
| --- | --- |
| SEQ ID NO 180 (designed binder) MLPAPKNLVVSRVTEDSARLSWTAPDAAFDSFEISYYEMRGYGEAIVLTVPGSERSYDLTGLKPGTEYSVLIHGVEGGDYSSPLSAISTT | 33500 |
| SEQ ID NO 174 (designed binder) MLPAPKNLVVSRVTEDSARLSWTAPDAAFDSFFIGYLEPQPPGEAIVLTVPGSERSYDLTGLKPGTEYKVVIQGVKGGTPSEPLSAIFTT | 2200 |
| SEQ ID NO 45 (designed binder) MLPAPKNLVVSRVTEDSARLSWTAPDAAFDSFAIYYLESYPEGEAIVLTVPGSERSYDLTGLKPGTEYWVGIDGVKGGTWSSPLSAIFTT | 2880 |
| SEQ ID NO 175 (designed binder) MLPAPKNLVVSRVTEDSARLSWTAPDAAFDSFFIGYLEPQPPGEAIVLTVPGSERSYDLTGLKPGTEYSVVIQGVKGGFPSDPLSAIFTT | 1600 |
| SEQ ID NO 177 (designed binder) MLPAPKNLVVSRVTEDSARLSWTAPDAAFDSFFIGYLEPQPPGEAIVLTVPGSERSYDLTGLKPGTEYNVTIQGVKGGRASGPLSAIFTT | 2450 |
| SEQ ID NO 176 (designed binder) MLPAPKNLVVSRVTEDSARLSWTAPDAAFDSFPIAYAEPRPDGEAIVLTVPGSERSYDLTGLKPGTEYSVGIHGVKGGHDSSPLSAIFTT | 10400 |
| SEQ ID NO 179 (designed binder) MLPAPKNLVVSRVTEDSARLSWTAPDAAFDSFYIAYAEPRPDGEAIVLTVPGSERSYDLTGLKPGTEYPVPIPGVKGGPGSSPLSAIFTT | 74700 |
| SEQ ID NO 181 (designed binder) MLPAPKNLVVSHVTEDSARLSWTAPDAAFDSFPIAYAEPRPDGEAIVLTVPGSERSYDLTGLKPGTEYSVLIHGVKGGLLSSPLSAIFTT | 6000 |
| SEQ ID NO 178 (designed binder) MLPAPKNLVVSRVTEDSARLSWTAPDAAFDSFDIAYAEPIPRGEAIVLTVPGSERSYDLTGLKPGTEYSVLIHGVKGGRRSVPLSAIFTT | 2250 |
| SEQ ID NO 173 (designed binder) MLPAPKNLVVSRVTEDSARLSWTAPDAAFDSFTIHYRELYVQAIVLTVPGSERSYDLTGLKPGTEYLVMIPGVKGGPTSVPLSAIFTT | 20800 |
| SEQ ID NO 44 (designed binder) MLPAPKNLVVSRVTEDSARLSWTAPDAAFDSFYIEYYESLPDGEAIVLTVPGSERSYDLTGLKPGTEYAVYIYGVKGGYYSRPLSAIFTT | 3920 |

Other lines, results leading:

| HSA | Binder |
| --- | --- |
| 2950 | SEQ ID NO 182 (designed binder) MLPAPKNLVVSRVTEDSARLSWTAPDAAFDSFFIGYLEPYPPGEAIVLTVPGSERSYDLTGLKPGTEYVVSIQGVKGGTPSQPLSAIFTT |
| 7250 | SEQ ID NO 187 (designed binder) MLPAPKNLVVSRVTEDSARLSWTAPDAAFDSFVIEYFEFVGYGEAIVLTVPGSERSYDLTGLKPGTEYSVGIYGVKGGKLSPPLSAIFTT |
| 10700 | SEQ ID NO 183 (designed binder) MLPAPKNLVVSRVTEDSARLSWTAPDAAFDSFLIPYAETSPSGEAIVLTVPGSERSYDLTGLKPGTEYSVLIHGVKGGRPSNPLVAAFTT |
| 1850 | SEQ ID NO 186 (designed binder) MLPAPKNLVVSRVTEDSARLSWTAPDAAFDSFFIGYLESAEAIVLTVPGSERSYDLTGLKPGTEYLVTIQGVKGGIASDPLSAIFTT |
| 9950 | SEQ ID NO 185 (designed binder) MLPAPKNLVVSRVTEDSARLSWTAPDAAFDSFEIDYDELAIYGEAIVLTVPGSERSYDLTGLKPGTEYGVMIIGVKGGLPSDPLSAIFTT |
